We go through two molecules from patent US20250376539A1 (KIRA PHARMACEUTICALS SUZHOU, published 2025).

Changes are numbered by the printed parent chain.

For assay [1], the target named is T1, recombinant cynomolgus (cyno) complement C2 (XP_005553508.1), C-terminal 6His-tag, made in house (CHO cell … (cynomolgus monkey (Macaca fascicularis), UniProt P06681 21-752 (human entry))).
T1 construct: also called cyno C2; Cyno C2
T1 chain: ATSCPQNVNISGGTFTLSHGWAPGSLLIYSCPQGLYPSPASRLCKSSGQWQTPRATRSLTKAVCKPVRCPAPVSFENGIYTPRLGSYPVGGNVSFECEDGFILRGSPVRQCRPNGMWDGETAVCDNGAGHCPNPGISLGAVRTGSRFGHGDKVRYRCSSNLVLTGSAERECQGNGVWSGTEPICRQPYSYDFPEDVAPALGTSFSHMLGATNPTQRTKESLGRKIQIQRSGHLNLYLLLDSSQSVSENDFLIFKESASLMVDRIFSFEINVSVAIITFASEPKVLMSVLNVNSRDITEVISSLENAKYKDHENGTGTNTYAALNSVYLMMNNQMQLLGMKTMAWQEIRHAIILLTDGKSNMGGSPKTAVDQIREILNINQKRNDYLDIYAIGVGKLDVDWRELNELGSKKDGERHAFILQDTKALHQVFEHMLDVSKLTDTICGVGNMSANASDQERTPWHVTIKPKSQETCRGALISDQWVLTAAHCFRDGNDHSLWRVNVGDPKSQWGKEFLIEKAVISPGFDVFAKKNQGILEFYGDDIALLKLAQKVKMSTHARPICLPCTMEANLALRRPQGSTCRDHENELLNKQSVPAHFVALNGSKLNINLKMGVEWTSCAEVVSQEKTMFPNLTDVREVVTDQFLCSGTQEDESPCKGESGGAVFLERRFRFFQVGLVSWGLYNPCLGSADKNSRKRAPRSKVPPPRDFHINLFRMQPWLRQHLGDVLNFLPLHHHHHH
As to the kind of experiment: ELISA on cyno C2, OD450nm against log Ab conc. (nmol/L). (In general: ELISA stands for enzyme-linked immunosorbent assay.)

For assay [2], the target named is T2, recombinant human C2a, C-terminal 6His-tag, made in house (CHO cell expression) (human, UniProt P06681 244-752).
T2 sequence: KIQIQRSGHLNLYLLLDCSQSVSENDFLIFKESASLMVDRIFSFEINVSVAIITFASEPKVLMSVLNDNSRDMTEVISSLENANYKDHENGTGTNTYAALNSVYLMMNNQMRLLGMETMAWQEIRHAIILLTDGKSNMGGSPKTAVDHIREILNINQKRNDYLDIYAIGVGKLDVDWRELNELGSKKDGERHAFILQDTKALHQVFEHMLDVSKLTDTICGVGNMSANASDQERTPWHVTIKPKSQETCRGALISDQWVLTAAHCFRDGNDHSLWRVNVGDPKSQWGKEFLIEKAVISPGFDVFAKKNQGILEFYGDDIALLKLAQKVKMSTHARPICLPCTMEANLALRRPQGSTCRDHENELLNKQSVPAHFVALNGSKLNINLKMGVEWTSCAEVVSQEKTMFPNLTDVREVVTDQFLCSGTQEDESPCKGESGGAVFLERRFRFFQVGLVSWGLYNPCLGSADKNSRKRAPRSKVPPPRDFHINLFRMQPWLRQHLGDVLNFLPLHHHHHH
As to the kind of experiment: ELISA.

The target in assay [3] is T3, recombinant cyno C2a, C-terminal 6His-tag, made in house (CHO cell expression) (cynomolgus monkey, UniProt P06681 244-752 (human entry)).
T3 chain: T2 sequence with C18S, D68V, M73I, N84K, R112Q, E117K, H148Q
Nature of the assay: ELISA.

Assay [4] addresses T4, recombinant human complement C2 (NP_000054.2), C-terminal 6His-tag, made in house (CHO cell expression) (human, UniProt P06681 21-752).
T4 construct: a linker before the tag is not described; also called human C2; Human C2
T4 sequence: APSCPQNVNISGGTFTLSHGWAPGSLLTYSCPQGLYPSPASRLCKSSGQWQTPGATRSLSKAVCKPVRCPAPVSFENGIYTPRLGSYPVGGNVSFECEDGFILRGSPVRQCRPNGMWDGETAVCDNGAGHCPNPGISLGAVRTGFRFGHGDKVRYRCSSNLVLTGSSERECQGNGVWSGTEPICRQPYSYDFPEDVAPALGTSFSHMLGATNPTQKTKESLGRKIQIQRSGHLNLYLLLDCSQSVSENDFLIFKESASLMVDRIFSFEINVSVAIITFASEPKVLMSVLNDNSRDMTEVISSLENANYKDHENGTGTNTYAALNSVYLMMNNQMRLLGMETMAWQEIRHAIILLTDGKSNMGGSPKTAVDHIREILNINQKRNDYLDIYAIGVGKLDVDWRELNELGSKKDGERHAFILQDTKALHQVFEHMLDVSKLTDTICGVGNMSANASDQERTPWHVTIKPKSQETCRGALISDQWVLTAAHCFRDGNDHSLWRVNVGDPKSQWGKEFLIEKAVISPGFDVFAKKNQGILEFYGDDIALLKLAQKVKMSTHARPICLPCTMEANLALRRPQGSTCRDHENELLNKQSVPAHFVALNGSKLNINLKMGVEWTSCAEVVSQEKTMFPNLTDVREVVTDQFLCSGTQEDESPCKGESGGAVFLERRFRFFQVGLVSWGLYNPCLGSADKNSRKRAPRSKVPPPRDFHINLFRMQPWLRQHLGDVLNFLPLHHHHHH
Nature of the assay: ELISA.

The target of assay [5] is T1, recombinant cynomolgus (cyno) …. Nature of the assay: BLI (Gator); ratio of dissociation at pH 5.8 to pH 7.4. On the procedure: (§1) The histidine mutant constructs in Table 4 were tested for their pH-dependent dissociation from human C2. Probe-immobilized anti-C2 antibodies were incubated with C2 at pH 7.4 for 600s, followed by a 600s dissociation period in K Buffer at pH 7.4 or pH 5.8. The data were processed and analyzed by the Gator evaluation software.
(§2) Non-fusion mAb were used for comparison.

The target of assay [6] is T4, recombinant human complement C2 …. The assay is described as above. On the procedure:
as §1, §2

The target in assay [7] is T1, recombinant cynomolgus (cyno) …. As to the kind of experiment: binding kinetics (BLI presumed).
Assay [8] has the same target. As to the kind of experiment: BLI (Gator), antibody on probe; 600 s association at pH 7.4, 600 s dissociation at pH 5.8. On the procedure:
as §1, §2

For assay [9], the target named is T4, recombinant human complement C2 …. The description is as above. How it is done: as §1, §2
Assay [10] addresses T1, recombinant cynomolgus (cyno) …. Nature of the assay: BLI (Gator), antibody on probe; 600 s association at pH 7.4, 600 s dissociation at pH 7.4. How it is done: as §1, §2
Assay [11] concerns the target T4, recombinant human complement C2 …. The description is as above. How it is done:
as §1, §2

Assay [12] has the same target. Nature of the assay: binding kinetics, neutral pH (BLI presumed).

B1: anti-C2 antibody 149.46 (antibody, IgG4, V domains shown)
VH: QVQLQQSGPGLVKPSQPLSLTCAISGDSVSSNSATWSWIRQSPSRGLEWLGRTYYRSKWYHDYAVFVKSRMTINPDTSKNQFSLQLNSVTPEDTAVYYCARGGMPASDIPHFDNWGQGILVTVSS
VL: SYELTQPPSLSVSPGQTASITCSGHKLGDKYACWYQQKPGQSPVLVIYQDNKRPSGIPERFSGSNSGNTATLTISGTQALDEADYYCQAWDSITYVFGTGTKVTVL
notes: Recombinant
As for B1, the binding result in assay [1] was “binds”. Besides, the EC50 in assay [2] came to 0.0457 nM; in assay [3], 0.042 nM; in [4] it was 0.165 nM.

B2: 3.2 H2-10 (a representative pH dependent 3.2 comprising a histidine mutation in the heavy chain CDR2) (antibody, V domains shown)
VH: EVQLLESGGGLVQPGGSLRLSCAASGFTFRHYAMSWVRQAPGKGLEWVSLISGSGASTHYADSVKGRFTISRDNSENMLYLQMNSLRAEDTAVYYCAKDSLAVAGSEYFQHWGQGTLVTVSS
VL: SYVLTQAPSVSVAPGQTARITCGGNYFGGKSVHWYQQRPGQAPVLVVYDDSDRPSGIPERFSGSKSGNTATLAISRVEAGDEAAYYCQVYDTSSDHWVFGGGTKLTVL
Consider B2, for which the “Fold dissociation pH 5.8/pH 7.4” value came out at 7.53 fold in assay [5] and 8.2 fold in assay [6]. In addition, the Kd in [7] came out at 0.222 nM; in [12] it was 0.172 nM. In addition, the koff in assay [7] stood at 9.84e-05 s⁻¹; in [12], 6.05e-05 s⁻¹. Moreover, the kon in assay [7] stood at 442000 M⁻¹ s⁻¹; in assay [12], 353000 M⁻¹ s⁻¹. Also, the “Dissociation (%) pH 5.8” value in [8] is 62.9%; in [9], 56.7%. Besides, the “Dissociation (%) pH 7.4” value turned out to be 8.35% in assay [10] and 6.91% in [11].

What is called EC50 is the concentration giving half of the maximal effect. A word on the Kd: it is the concentration at which binding is half-saturated. The koff is a measure of how fast the partners let go of each other. By kon is commonly meant a measure of how fast the partners come together.
